Laboratory results from publication PMC3857245.

Biological target: 3xFLAG-tagged rat KCNQ2 (rat) (UniProt O88943)
Test: co-IP; KCNQ2-CaM complex immunoprecipitated in calcium (–) condition, the resin then exposed to 500 µM Ca2+; time course of CaM left on KCNQ2

Chain of UniProt O88943 (O88943 whole entry): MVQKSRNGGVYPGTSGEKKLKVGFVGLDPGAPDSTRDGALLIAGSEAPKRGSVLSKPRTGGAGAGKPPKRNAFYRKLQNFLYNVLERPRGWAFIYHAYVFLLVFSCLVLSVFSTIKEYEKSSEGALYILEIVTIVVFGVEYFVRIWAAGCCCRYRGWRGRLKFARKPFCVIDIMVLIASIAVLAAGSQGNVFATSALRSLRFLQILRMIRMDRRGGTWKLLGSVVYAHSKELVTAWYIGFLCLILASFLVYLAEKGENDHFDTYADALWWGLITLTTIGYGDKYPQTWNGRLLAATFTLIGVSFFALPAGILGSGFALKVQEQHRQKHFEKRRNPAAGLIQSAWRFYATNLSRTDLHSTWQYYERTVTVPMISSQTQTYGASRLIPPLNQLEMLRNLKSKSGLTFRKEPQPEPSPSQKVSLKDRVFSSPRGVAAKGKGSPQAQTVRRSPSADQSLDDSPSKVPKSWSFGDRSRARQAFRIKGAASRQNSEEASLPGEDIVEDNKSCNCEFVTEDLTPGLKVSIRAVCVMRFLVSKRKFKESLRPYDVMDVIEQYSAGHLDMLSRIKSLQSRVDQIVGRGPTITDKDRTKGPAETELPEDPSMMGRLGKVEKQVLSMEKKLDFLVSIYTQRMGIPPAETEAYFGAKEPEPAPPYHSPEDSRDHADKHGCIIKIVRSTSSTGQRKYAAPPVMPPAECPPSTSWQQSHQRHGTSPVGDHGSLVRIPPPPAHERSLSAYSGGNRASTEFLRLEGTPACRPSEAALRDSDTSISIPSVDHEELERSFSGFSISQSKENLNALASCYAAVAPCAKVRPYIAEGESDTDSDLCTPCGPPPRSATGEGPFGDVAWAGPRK

- time constant of calcium-induced dissociation: 20.7 s
Substance: V5-epitope tagged calmodulin (from UniProt P0DP23 1-149) (natural protein)
